Non-standard residues stand in square brackets, D forms with d. No end group written: not given here.
How the values were obtained:
[1] = target: the molecule itself; test: RP-HPLC temperature profiling, self-association (dimerization/oligomerization)
Protocol: (§1) The purity of the peptides was verified by analytical RP-HPLC and the peptides were characterized by mass spectrometry (LC/MS). Crude and purified peptides were analyzed on an Agilent 1100 series liquid chromatograph (Little Falls, Del., USA). Analytical runs were performed on a Zorbax 300 SB-C₈ column (150×2.1 mm I.D.; 5 μm particle size, 300 Å pore size) from Agilent Technologies using a linear AB gradient (1% acetonitrile/min) and a flow rate of 0.25 mL/min, where eluent A was 0.2% aqueous TFA, pH 2, and eluent B was 0.18% TFA in acetonitrile. Temperature profiling analyses were performed on the same column in 3° C. increments, from 5° C. to 80° C. using a linear AB gradient of 0.5% acetonitrile/min.
^atR denotes retention time in RP-HPLC at pH 2 and room temperature, and is a measure of overall peptide hydrophobicity. ^bThe mean residue molar ellipticities [θ]₂₂₂ (deg cm²/dmol) at wavelength 222 nm were measured at 5° C. in benign conditions (100 mM KCl, 50 mM NaH₂PO₄/Na₂HPO₄, pH 7.0) or in benign buffer containing 50% trifluoroethanol (TFE) by circular dichroism spectroscopy. ^cThe helical content (as a percentage) of a peptide relative to the molar ellipticity value of parent peptide (D-Piscidin 1 or D-Dermaseptin S4) in the presence of 50% TFE. ^dPA denotes self-association parameter (dimerization/oligomerization) of each peptide during RP-HPLC temperature profiling, which is the maximal retention time difference of (tR^t-tR⁵ for peptide analogs)-(tR^t-tR⁵ for control peptide C) within the temperature range; tR^t-tR⁵ is the retention time difference of a peptide at a specific temperature (tR^{t)} compared with that at 5° C. (tR⁵). The sequence of the random coil control peptide C is shown in Table 1. ^eAmphipathicity was determined by calculation of hydrophobic moment using hydrophobicity coefficients determined by reversed-phase chromatography; see methods for details. The amphipathicity values for D-Dermaseptin S4 and its analogs (residues 1-14) are shown in brackets.

[2] = target: the molecule itself; test: RP-HPLC temperature profiling, 5 to 80 C, pH 2 (self-association)
Protocol: as §1
Control peptide C is a monomeric random coil peptide in both aqueous and hydrophobic media; thus, its linear decrease in peptide retention behavior with increasing temperature within the range of 5° C. to 80° C. represents only the general effects of temperature due to greater solute diffusivity and enhanced mass transfer between the stationary and mobile phase at higher temperatures. To allow for these general temperature effects, the data for the control peptide was subtracted from each temperature profile, as shown in FIG. 6B. Thus, the peptide self-association parameter, PA, represents the maximum change in peptide retention time relative to the random coil peptide C. […]

| Protein | PA (self-association parameter) [1] [min] | binding result [2] |
| --- | --- | --- |
| [dF][dF][dH][dH][dI][dF][dR]G[dK][dV][dH][dV]G[dK][dT][dI][dH][dR][dL][dV][dT]G-NH2 (N-terminus assumed; SMILES CC[C@@H](C)[C@@H](NC(=O)[C@@H](Cc1c[nH]cn1)NC(=O)[C@@H](Cc1c[nH]cn1)NC(=O)[C@@H](Cc1ccccc1)NC(=O)[C@H](N)Cc1ccccc1)C(=O)N[C@H](Cc1ccccc1)C(=O)N[C@H](CCCNC(=N)N)C(=O)NCC(=O)N[C@H](CCCCN)C(=O)N[C@@H](C(=O)N[C@H](Cc1c[nH]cn1)C(=O)N[C@@H](C(=O)NCC(=O)N[C@H](CCCCN)C(=O)N[C@@H](C(=O)N[C@@H](C(=O)N[C@H](Cc1c[nH]cn1)C(=O)N[C@H](CCCNC(=N)N)C(=O)N[C@H](CC(C)C)C(=O)N[C@@H](C(=O)N[C@@H](C(=O)NCC(N)=O)[C@H](C)O)C(C)C)[C@H](C)CC)[C@H](C)O)C(C)C)C(C)C, Synthetic all-D analog; also called D-Piscidin I9K) [D-Piscidin 1 I9K] | 1.29 |  |
| [dF][dF][dH][dH][dI][dF][dR]G[dI][dV][dH][dV][dK][dK][dT][dI][dH][dR][dL][dV][dT]G-NH2 (N-terminus assumed; SMILES CC[C@@H](C)[C@@H](NC(=O)CNC(=O)[C@@H](CCCNC(=N)N)NC(=O)[C@@H](Cc1ccccc1)NC(=O)[C@H](NC(=O)[C@@H](Cc1c[nH]cn1)NC(=O)[C@@H](Cc1c[nH]cn1)NC(=O)[C@@H](Cc1ccccc1)NC(=O)[C@H](N)Cc1ccccc1)[C@H](C)CC)C(=O)N[C@@H](C(=O)N[C@H](Cc1c[nH]cn1)C(=O)N[C@@H](C(=O)N[C@H](CCCCN)C(=O)N[C@H](CCCCN)C(=O)N[C@@H](C(=O)N[C@@H](C(=O)N[C@H](Cc1c[nH]cn1)C(=O)N[C@H](CCCNC(=N)N)C(=O)N[C@H](CC(C)C)C(=O)N[C@@H](C(=O)N[C@@H](C(=O)NCC(N)=O)[C@H](C)O)C(C)C)[C@H](C)CC)[C@H](C)O)C(C)C)C(C)C, Synthetic all-D analog; also called D-Piscidin G13K) [D-Piscidin 1 G13K] | 0.95 |  |
| [dF][dF][dH][dH][dI][dF][dR]G[dI][dV][dH][dV]G[dK][dT][dI][dH][dR][dL][dV][dT]G-NH2 (N-terminus assumed; SMILES CC[C@@H](C)[C@@H](NC(=O)CNC(=O)[C@@H](CCCNC(=N)N)NC(=O)[C@@H](Cc1ccccc1)NC(=O)[C@H](NC(=O)[C@@H](Cc1c[nH]cn1)NC(=O)[C@@H](Cc1c[nH]cn1)NC(=O)[C@@H](Cc1ccccc1)NC(=O)[C@H](N)Cc1ccccc1)[C@H](C)CC)C(=O)N[C@@H](C(=O)N[C@H](Cc1c[nH]cn1)C(=O)N[C@@H](C(=O)NCC(=O)N[C@H](CCCCN)C(=O)N[C@@H](C(=O)N[C@@H](C(=O)N[C@H](Cc1c[nH]cn1)C(=O)N[C@H](CCCNC(=N)N)C(=O)N[C@H](CC(C)C)C(=O)N[C@@H](C(=O)N[C@@H](C(=O)NCC(N)=O)[C@H](C)O)C(C)C)[C@H](C)CC)[C@H](C)O)C(C)C)C(C)C, also called native D-Piscidin 1) [D-Piscidin 1] | 0.78 |  |
| [dF][dF][dH][dH][dI][dF][dR]G[dI][dV][dH][dK]G[dK][dT][dI][dH][dR][dL][dV][dT]G-NH2 (N-terminus assumed; SMILES CC[C@@H](C)[C@@H](NC(=O)CNC(=O)[C@@H](CCCNC(=N)N)NC(=O)[C@@H](Cc1ccccc1)NC(=O)[C@H](NC(=O)[C@@H](Cc1c[nH]cn1)NC(=O)[C@@H](Cc1c[nH]cn1)NC(=O)[C@@H](Cc1ccccc1)NC(=O)[C@H](N)Cc1ccccc1)[C@H](C)CC)C(=O)N[C@@H](C(=O)N[C@H](Cc1c[nH]cn1)C(=O)N[C@H](CCCCN)C(=O)NCC(=O)N[C@H](CCCCN)C(=O)N[C@@H](C(=O)N[C@@H](C(=O)N[C@H](Cc1c[nH]cn1)C(=O)N[C@H](CCCNC(=N)N)C(=O)N[C@H](CC(C)C)C(=O)N[C@@H](C(=O)N[C@@H](C(=O)NCC(N)=O)[C@H](C)O)C(C)C)[C@H](C)CC)[C@H](C)O)C(C)C, Synthetic all-D analog) [D-Piscidin 1 V12K] | 0.69 |  |
| Ac-ELEKGGLEGEKGGKELEK-NH2 (also called control peptide C; random coil control peptide (C)) [Control C] |  | no binding |
| [dA][dL][dW][dM][dT][dL][dK][dK][dK][dV][dL][dK][dA][dA][dA][dK][dA][dL][dN][dA][dV][dL][dV]G[dA][dN][dA]-NH2 (N-terminus assumed; SMILES CSCC[C@@H](NC(=O)[C@@H](Cc1c[nH]c2ccccc12)NC(=O)[C@@H](CC(C)C)NC(=O)[C@@H](C)N)C(=O)N[C@@H](C(=O)N[C@H](CC(C)C)C(=O)N[C@H](CCCCN)C(=O)N[C@H](CCCCN)C(=O)N[C@H](CCCCN)C(=O)N[C@@H](C(=O)N[C@H](CC(C)C)C(=O)N[C@H](CCCCN)C(=O)N[C@H](C)C(=O)N[C@H](C)C(=O)N[C@H](C)C(=O)N[C@H](CCCCN)C(=O)N[C@H](C)C(=O)N[C@H](CC(C)C)C(=O)N[C@H](CC(N)=O)C(=O)N[C@H](C)C(=O)N[C@@H](C(=O)N[C@H](CC(C)C)C(=O)N[C@@H](C(=O)NCC(=O)N[C@H](C)C(=O)N[C@H](CC(N)=O)C(=O)N[C@H](C)C(N)=O)C(C)C)C(C)C)C(C)C)[C@H](C)O, Synthetic all-D analog; also called D-Dermaseptin S4 L7K (27-mer)) [D-Dermaseptin S4 L7K] | 4.8 |  |
| [dA][dL][dW][dM][dT][dL][dK][dK][dK][dV][dL][dK][dA][dK][dA][dK][dA][dL][dN][dA][dV][dL][dV]G[dA][dN][dA]-NH2 (N-terminus assumed; SMILES CSCC[C@@H](NC(=O)[C@@H](Cc1c[nH]c2ccccc12)NC(=O)[C@@H](CC(C)C)NC(=O)[C@@H](C)N)C(=O)N[C@@H](C(=O)N[C@H](CC(C)C)C(=O)N[C@H](CCCCN)C(=O)N[C@H](CCCCN)C(=O)N[C@H](CCCCN)C(=O)N[C@@H](C(=O)N[C@H](CC(C)C)C(=O)N[C@H](CCCCN)C(=O)N[C@H](C)C(=O)N[C@H](CCCCN)C(=O)N[C@H](C)C(=O)N[C@H](CCCCN)C(=O)N[C@H](C)C(=O)N[C@H](CC(C)C)C(=O)N[C@H](CC(N)=O)C(=O)N[C@H](C)C(=O)N[C@@H](C(=O)N[C@H](CC(C)C)C(=O)N[C@@H](C(=O)NCC(=O)N[C@H](C)C(=O)N[C@H](CC(N)=O)C(=O)N[C@H](C)C(N)=O)C(C)C)C(C)C)C(C)C)[C@H](C)O, Synthetic all-D analog; also called D-Dermaseptin S4 L7K, A14K (27-mer)) [D-Dermaseptin S4 L7K, A14K] | 2.29 |  |

From patent publication US20160333062A1 (REGENTS OF THE UNIVERSITY OF COLORADO A BODY CORPORATE, published 2016)
